Test: yeast display, Sf9 membrane polyspecificity reagent, FACS + sequencing; frameworks hold sequencing errors
Outline: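 A nanobody's polyreactivity label depends on the gate it was sorted from. Yeast display cells were stained with 10% biotinylated, detergent-solubilized Sf9 membrane reagent for 1 hour at 4 °C, enriched on streptavidin microbeads and sorted by FACS. The low and high (top ~1%) gates were set on anti-HA fluorescence for expression and streptavidin fluorescence for reagent binding.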

Row | Sequence | polyreactivity (PSR sort gate)
1 | QVQLVESGGGLDQAGGSLRLSCAASGSTFVVNAMGWYRQAPGKERELVAAIRNSGSTTYADSVKGRFTISRDNAKYTVYLQMNSLKPEDTAVYYCATDFSATVTAVQINPYDYWGQGTQVTVSS | low polyreactivity
2 | QVQLVESGGGLDQAGGSLRLSCAASGSTLGRNAMGWYRQAPGKERELVAAISSSSGRTYYADSVKGRFTISRDNAKNTVYLQMNSLKPEDTAVYYCAATHAVARPLEYDYWGQGTQVTVSS | low polyreactivity
3 | QVQLVESGGGLDQAGGSLRLSCAASGTFSRNAMGWYRQAPGKERELLADISGGRSTDYADSVKGRFTISRDNAKNTVYLQMNSLKPEDTAVYYCAAYGYLWWEMDYWGQGTQVTVSS | high polyreactivity
4 | QVQLVESGGGLDQAGGSLRLSCAASGYTFFSNAMGWYRQAPGKERELVAAITFSGGSTYYADSVKGRFTISRDNAKNTVYLHMNSLKPEDTAVYYCATRYYYHYPRKHIYNYWGQGTQVTVSS | high polyreactivity
5 | QVQLVESGGGLDQAGGSLRLSCAASVSTFLVNTMGWYRQAPGKEREFVAAYADSVKGRFTISRDNAKNTVYLQMNSLKPEYTAVYYCNAGGSEIYRSPFDYWGQGTQVTVSS | low polyreactivity
6 | QVQLVESGGGLDQAGGSLRLSCADSGSIFVYYAMGWYRQAPGKERELVAAITTSGGSTYYADSVKGRFTISRDNAKNTVYLQMNSLKPEDTAVYYCAAELLAWYWSYSVPWPYDYWGQGTQVTVSS | low polyreactivity
7 | QVQLVESGGGLDQAGGSLRLSCADSGYTFRAYAMGWYRQAPGKERELVAAITRSGTSTYYADSVKGRFTISRDNAKNTVYLQMNSLKPEDTAVYYCNVDVYLYAKEYDYWGQGTQVTVSS | high polyreactivity
8 | QVQLVESGGGLDQAGGSLRLSCASGRIFKKNAMGWYRQAPGNERELVAGITISGGRTYYADSVKGRFTISRDNAKNTVYLQMNSVKPEDTAVYYCNAGPDRRVSYYRLLDHWGQGTQVTVSS | low polyreactivity
9 | QVQLVESGGGLDQAGGSLRLSCPASGITFGYNDMGRYRQAPGKERELVAAINRGASTYYADSVKGRFTISRDNAKNTVYLQMYSLKPEDTAVYYCNADHRDTFIWVGLPHMDYWGQGTQVTVSS | low polyreactivity
10 | QVQLVESGGGLDQAGGSLRLSSAASGRTVDIYAMGWYRQAPWKEWELVAAITRGGSTYYADSVKGRFTISRDNAKNTVYLQMNCLIPEDTAVYYCSAKLGTGYRRWYDYWGQGTQVTVSS | high polyreactivity
11 | QVQLVESGGGLDQAGGSRRLSCAASGSTFSSYAMGWYSQAPGQARELVAVITASGGSTYYADSVKGRFTISRDNPKNTVYLQMNSLKPDDTAVYYCAADPRSGDQYGKGDYWGQGTQVTGSS | low polyreactivity
12 | QVQLVESGGGLDQAGSSLSLSCDSSGRIFYGYAMGWYRQEPGKERELVAAISWRGGRTYYADSVKGRFTISRDNAKNTVYLQMNRLIPEDTAVYYCNKDFPPQGKLLNMYYWGQGTQVTLSS | high polyreactivity
13 | QVQLVESGGGLDQAGVSLRLSCAASGRTFGGYAMGWYRQAPGKERELVASITSGGSTYYADSVKGRFTISRDNAKNTVYLQMNSLKPEDTAVYYCAADTYFETSTRAIPTNDYWGQGTQVTVSS | low polyreactivity
14 | QVQLVESGGGLDQARGSLRLSCAASGRIFELYAMGWYRQAPGKERELVAAITSSGGTTYYADSVKGRFTISRDNAKNTVYLQMNSLKPEDTAVYYCNTVYATRYDYWGQGTQVTVSS | high polyreactivity
15 | QVQLVESGGGLDQARGSLRLSCAASGRTFRYYAMGWYRQAPWKERELVAAISSRGTRTYYADSVKGRFTISRDNAKNTVYLQMNSLKPEDTAVYYCATRYYQELSYDYWGQGTQVIVSS | high polyreactivity
16 | QVQLVESGGGLDQARGSLRLSCAASGSTFGRYAIGWYRQAHGKERELVAAINSRGGRTYYADSVKGRFTISRDNAKNTVYLQMNSLKPEVTAVYYCAAPTGPKGYYSDRGDSWGQGTQVTLSS | low polyreactivity
17 | QVQLVESGGGLDQARGTLSLICAASGSIFRHYAMGWYRQAPWKERELVAAISGSGATTYYADSVKGRFTISRDNAKNTVYLQMKSLKPVDNAVYYCAARTTYITTWVYRHNYTYYYWGQGTQVTVSS | high polyreactivity
18 | QVQLVESGGGLDQEGGSLRLSCAASGSTFAVHVMGWYRHAPGKERELVATITYRDGRTYYADSVKGRFTISRDNANNTVYLQMNSLKPEDTAVYYCAADWYTTYDYWGQGTQVTVSS | low polyreactivity
19 | QVQLVESGGGLEQAGGSLRLSCAASGLIFRGYVMGWYRPAPGKERELVAAISRRGVNTYYADSVKGRFTISRDNSKNTVYLQMNSLKPEDTAVYYCAAETHVGWPAKFDYWGQGTQVTVSS | high polyreactivity
20 | QVQLVESGGGLEQAGGSLRLSCAASGLTFSAYVMAWYRLAPGKERELVAAISRRGGSTYYAYSVKGRFTISRDNAKNTVYLQMNSLKPEDTAVYYCAARKVAVRGYGYWGQGTQVTVSS | high polyreactivity
21 | QVQLVESGGGLFKAGGSLRLSSAASGSIFQNYDMGWYRQAPGNERELVAAISSSGDTYYADSVKGRFTISLDNAKNTVYLQMNSLKPEDTAVYYCAATYPYSLYYPYYGGDYDYWGQGTQVTVSS | low polyreactivity
22 | QVQLVESGGGLFQAGGRLRLICAASGRIFTTNAMGWYRQAPGKERELVPAISRSGGSTNYADSVKGRFTISRDNAKNTVYLQMNSLIPEDTAVYYCAAVPTCNSFRSSFYYWGQGTQVTVSS | high polyreactivity
